Reference: patent US20250042970A1
Where two headings read alike, the source gives them in different places.

Legend:
[1] = target: human APRIL (Acros Biosystems) (human) (UniProt O75888); assay: cell-based or functional assay
[2] = target: human BAFF (Acros Biosystems) (human) (UniProt Q9Y275); assay: cell-based or functional assay
[3] = target: human BAFF-60mer (Adipogen) (human) (UniProt Q9Y275); assay: cell-based or functional assay
[4] = target: human APRIL (Examples 21-23) (human) (UniProt O75888); assay: SPR (Carterra LSA, HC30M chip)
[5] = target: human BAFF (Examples 21-23) (human) (UniProt Q9Y275); assay: SPR (Carterra LSA, HC30M chip)
[6] = target: murine BAFF (Examples 22-23) (mouse) (UniProt Q9WU72); assay: SPR (Carterra LSA, HC30M chip)
syndecan-1 [7] = target: T1, syndecan-1; assay: colorimetric ELISA, binding curve (450 nm against LogM) on syndecan-1; curve rises to about 1.8 at LogM about -6.7, no plateau
T1 sequence (P18827 whole entry, species assumed, looked up): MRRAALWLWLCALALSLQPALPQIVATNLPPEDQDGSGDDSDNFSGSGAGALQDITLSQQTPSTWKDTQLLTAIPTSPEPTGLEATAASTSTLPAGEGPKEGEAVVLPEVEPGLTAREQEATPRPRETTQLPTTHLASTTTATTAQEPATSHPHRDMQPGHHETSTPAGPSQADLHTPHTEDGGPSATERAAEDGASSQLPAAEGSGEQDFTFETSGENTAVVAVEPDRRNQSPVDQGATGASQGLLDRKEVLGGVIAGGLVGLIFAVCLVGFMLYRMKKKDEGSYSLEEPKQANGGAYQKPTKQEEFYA

syndecan-2 [8] = assay: colorimetric ELISA, binding curve (450 nm against LogM) on syndecan-2; curve rises to about 2.4 at LogM about -6.7, no plateau
[9] = target: human BAFF (Examples 21-23) (human) (UniProt Q9Y275); assay: colorimetric ELISA, inhibition curve (450 nm against LogM of the fusion protein) for human BAFF; the partner on the plate not given
[10] = target: murine BAFF (Examples 22-23) (mouse) (UniProt Q9WU72); assay: colorimetric ELISA, inhibition curve (450 nm against logM of the fusion protein) for mouse BAFF; the partner on the plate not given
[11] = target: human APRIL (Examples 21-23) (human) (UniProt O75888); assay: colorimetric ELISA, inhibition curve (450 nm against LogM of the fusion protein) for human APRIL; the partner on the plate not given
[12] = target: murine APRIL (Examples 22-23) (mouse) (UniProt Q9D777); assay: colorimetric ELISA, inhibition curve (450 nm against logM of the fusion protein) for mouse APRIL; the partner on the plate not given
[13] = target: human APRIL (Examples 21-23) (human) (UniProt O75888); assay: assay not given (Example 21)
[14] = target: human BAFF (Examples 21-23) (human) (UniProt Q9Y275); assay: assay not given (Example 21)
[15] = target: murine APRIL (Examples 22-23) (mouse) (UniProt Q9D777); assay: SPR (Carterra LSA, HC30M chip)
syndecan-1 [16] = target: T1, syndecan-1; assay: colorimetric ELISA, binding curve (450 nm against LogM) on syndecan-1; curve rises to about 0.7 at LogM about -6.7, no plateau
syndecan-2 [17] = assay: colorimetric ELISA, binding curve (450 nm against LogM) on syndecan-2; curve rises to about 1.1 at LogM about -6.7, no plateau
[18] = target: FLAG-tagged human BAFF (human) (UniProt Q9Y275); assay: KinExA
[19] = target: FLAG-tagged recombinant human APRIL (human) (UniProt O75888); assay: KinExA
[20] = target: soluble huBAFF (Example 12) (human) (UniProt Q9Y275)
membrane-huBAFF (human) = membrane-huBAFF (human) (UniProt Q9Y275)
[21] = target: 6HIS-tagged murine BAFF (mouse) (UniProt Q9WU72); assay: BIACORE SPR
[22] = target: FLAG-tagged cynomolgous APRIL (cynomolgus monkey); assay: BIACORE SPR
[23] = target: FLAG-tagged human BAFF (human) (UniProt Q9Y275); assay: BIACORE SPR
[24] = target: FLAG-tagged murine megaAPRIL (mouse) (UniProt Q9D777); assay: BIACORE SPR
[25] = target: FLAG-tagged human BAFF (human) (UniProt Q9Y275); assay: KinExA; remark: listed apart in the source
[26] = target: FLAG-tagged cynomolgous APRIL (cynomolgus monkey); assay: BIACORE SPR; remark: listed apart in the source
[27] = target: FLAG-tagged human BAFF (human) (UniProt Q9Y275); assay: BIACORE SPR; remark: listed apart in the source
[28] = target: FLAG-tagged human BAFF (human) (UniProt Q9Y275); assay: BIACORE SPR; Table 3 experiment (BAv8-10 derivative series), control run

FLAG-tagged cynomolgous APRIL (cynomolgus monkey), sequence (A0ACM8 entry or part of it limits assumed): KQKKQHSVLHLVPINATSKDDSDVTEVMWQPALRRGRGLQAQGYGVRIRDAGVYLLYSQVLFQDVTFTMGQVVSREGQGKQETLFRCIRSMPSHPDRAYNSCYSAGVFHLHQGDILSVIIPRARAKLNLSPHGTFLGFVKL
RC18 (Telitacicept) (Fc fusion), sequence (chain): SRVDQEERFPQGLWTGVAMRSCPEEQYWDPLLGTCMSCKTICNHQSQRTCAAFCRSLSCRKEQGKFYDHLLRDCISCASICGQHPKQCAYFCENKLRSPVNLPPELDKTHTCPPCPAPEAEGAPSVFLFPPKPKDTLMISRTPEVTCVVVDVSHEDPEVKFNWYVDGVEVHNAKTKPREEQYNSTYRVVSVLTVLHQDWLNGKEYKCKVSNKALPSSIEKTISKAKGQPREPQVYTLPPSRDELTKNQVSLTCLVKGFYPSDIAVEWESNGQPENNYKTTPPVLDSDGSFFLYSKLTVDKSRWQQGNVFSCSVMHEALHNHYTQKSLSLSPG
human APRIL (Acros Biosystems) (human), sequence (O75888 115-250 limits assumed): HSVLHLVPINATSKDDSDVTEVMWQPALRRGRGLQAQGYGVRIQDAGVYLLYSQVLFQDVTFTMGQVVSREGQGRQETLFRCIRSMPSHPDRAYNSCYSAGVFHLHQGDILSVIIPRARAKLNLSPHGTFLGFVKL
murine BAFF (Examples 22-23) (mouse), sequence (Q9WU72 127-309 limits assumed): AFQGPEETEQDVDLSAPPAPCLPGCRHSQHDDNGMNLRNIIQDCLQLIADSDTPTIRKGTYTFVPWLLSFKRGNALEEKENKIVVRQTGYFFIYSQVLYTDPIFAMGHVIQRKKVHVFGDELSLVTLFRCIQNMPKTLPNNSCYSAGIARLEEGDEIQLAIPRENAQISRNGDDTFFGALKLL
murine APRIL (Examples 22-23) (mouse), sequence (Q9D777 96-241 limits assumed): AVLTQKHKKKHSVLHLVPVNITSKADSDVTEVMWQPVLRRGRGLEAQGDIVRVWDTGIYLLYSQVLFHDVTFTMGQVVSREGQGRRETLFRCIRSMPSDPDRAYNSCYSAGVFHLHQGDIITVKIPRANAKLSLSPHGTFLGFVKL
human APRIL (Examples 21-23) (human), sequence (O75888 105-250 limits assumed): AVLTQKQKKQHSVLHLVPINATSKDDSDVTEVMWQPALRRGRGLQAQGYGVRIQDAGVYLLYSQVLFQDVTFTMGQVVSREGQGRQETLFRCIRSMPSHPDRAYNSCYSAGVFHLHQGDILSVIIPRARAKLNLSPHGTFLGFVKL
FLAG-tagged recombinant human APRIL (human), sequence (O75888 105-250 limits assumed): as above
6HIS-tagged murine BAFF (mouse), sequence (Q9WU72 127-309 limits assumed): as the sequence (Q9WU72 127-309 limits assumed) above
syndecan-2, sequence (P34741 whole entry, the tested form may be a part): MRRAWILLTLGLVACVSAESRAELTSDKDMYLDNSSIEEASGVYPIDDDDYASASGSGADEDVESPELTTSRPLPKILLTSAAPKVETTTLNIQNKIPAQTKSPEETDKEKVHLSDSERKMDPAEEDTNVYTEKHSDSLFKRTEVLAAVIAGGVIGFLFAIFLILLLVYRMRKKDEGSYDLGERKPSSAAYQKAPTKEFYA

IC50 for proliferation of stimulated B cells, Donor 1, APRIL + anti-IgM [1]	IC50 for proliferation of stimulated B cells, Donor 2, APRIL + anti-IgM [1]	IC50 for proliferation of stimulated B cells, Donor 3, APRIL + anti-IgM [1]	IC50 for proliferation of stimulated B cells, Donor 1, BAFF + anti-IgM [2]	IC50 for proliferation of stimulated B cells, Donor 2, BAFF + anti-IgM [2]	IC50 for proliferation of stimulated B cells, Donor 3, BAFF + anti-IgM [2]	IC50 for proliferation of stimulated B cells, Donor 1, BAFF-60mer + anti-IgM [3]	IC50 for proliferation of stimulated B cells, Donor 2, BAFF-60mer + anti-IgM [3]	IC50 for proliferation of stimulated B cells, Donor 3, BAFF-60mer + anti-IgM [3]	Kd [4]	Kd [5]	Kd [6]	IC50 [9]	IC50 [10]	IC50 [11]	IC50 [12]	Kd [18]	Selectivity for huBAFF (KD APRIL/KD BAFF) [18]	fold improvement over control [18]	Kd [19]	Substance	further results
2.51 nM	573 pM	4.14 nM	1.98 nM	0.295 nM	1.05 nM	2.37 nM	0.818 nM	1.97 nM	0.082 nM	0.616 nM	0.0023 nM	12.4 nM	39 nM	6.7 nM	236 nM	–	–	–	–	RC18 (Telitacicept) (Fc fusion)	EC50 (syndecan-1 [7]): 160 nM; EC50 (syndecan-2 [8]): 70 nM
3 nM	0.01 pM	2.15 nM	0.64 nM	0.0985 nM	0.379 nM	2.06 nM	0.683 nM	1.13 nM	0.067 nM	0.919 nM	0.532 nM	6.8 nM	31 nM	3.6 nM	212 nM	–	–	–	–	Atacicept (Fc fusion)	Kd [13]: 0.13 nM; Kd [14]: 0.15 nM; Kd [15]: 0.13 nM; EC50 (syndecan-1 [16]): 120 nM; EC50 (syndecan-2 [17]): 5400 nM
–	–	–	–	–	–	–	–	–	–	–	–	–	–	–	–	0.151 nM	0.9	1.5 fold	0.131 nM	Z-TACI-Ig fusion protein (from UniProt O14836 30-110) (Fc fusion)	Selectivity for huAPRIL (KD BAFF/KD APRIL) [19]: 1.15; fold improvement over control [19]: 0.001 fold; IC50 (read off the curve) (NFkappaB luciferase signal of HEK293-huBCMA reporter cells stimulated with soluble huBAFF) [20]: 5 nM; IC50 (read off the curve) (NFkappaB luciferase signal of HEK293-huBCMA reporter cells stimulated with HEK-293 cells expressing membrane huBAFF) (membrane-huBAFF (human)): 5 nM; Kd [21]: 0.229 nM; Kd [22]: 1.21 nM; fold improvement KD vs control [22]: 0.01 fold; Kd [23]: 0.0745 nM; fold improvement KD vs control [23]: 1.6 fold; Kd [24]: 0.421 nM
–	–	–	–	–	–	–	–	–	–	–	–	–	–	–	–	0.226 nM	0.0007	1 fold	0.000159 nM	[S40G]huBCMA ECD-Ig fusion protein (from UniProt Q02223 5-54) (Fc fusion)	Selectivity for huAPRIL (KD BAFF/KD APRIL) [19]: 1420; fold improvement over control [19]: 1 fold; Kd [25]: 0.226 nM; IC50 (read off the curve) (NFkappaB luciferase signal of HEK293-huBCMA reporter cells stimulated with soluble huBAFF) [20]: 2 nM; Kd [21]: 0.0669 nM; Kd [22]: 0.0151 nM; fold improvement KD vs control [22]: 1 fold; Kd [23]: 0.121 nM; fold improvement KD vs control [23]: 1 fold; Kd [24]: 0.0216 nM; Kd [26]: 0.057 nM; fold improvement over control [26]: 1 fold; fold improvement over control [27]: 1 fold; Kd [28]: 0.173 nM
